The results in this text go back to paper PMC10470788.

Test [1] addresses BxpB (recombinant, 167 residues, His6 tag removed with Factor Xa) (Bacillus anthracis (Sterne strain)) (UniProt S5W424). Put plainly: SEC-MALS.
Test [2] has the same target. Briefly: crystal structure.

As to “BxpB (recombinant, 167 residues, His6 tag removed with Factor Xa) (from UniProt S5W424 1-167) (natural protein)”, the stoichiometry N in test [1] and in test [2] was 3 each time.
